Reference: US10618965 (dated 2020)

T1: human FcgRIIa(R) (human)
T1 chain: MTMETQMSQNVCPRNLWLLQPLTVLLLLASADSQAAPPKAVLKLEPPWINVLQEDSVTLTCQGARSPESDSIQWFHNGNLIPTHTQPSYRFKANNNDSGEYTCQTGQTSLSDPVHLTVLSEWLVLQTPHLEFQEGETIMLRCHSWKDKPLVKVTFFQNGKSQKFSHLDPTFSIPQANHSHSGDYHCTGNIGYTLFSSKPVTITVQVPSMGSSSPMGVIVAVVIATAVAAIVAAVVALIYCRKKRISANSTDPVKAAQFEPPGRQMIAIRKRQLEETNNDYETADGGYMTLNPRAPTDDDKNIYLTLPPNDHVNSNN

T2: human FcgRIIb (human)
T2 chain: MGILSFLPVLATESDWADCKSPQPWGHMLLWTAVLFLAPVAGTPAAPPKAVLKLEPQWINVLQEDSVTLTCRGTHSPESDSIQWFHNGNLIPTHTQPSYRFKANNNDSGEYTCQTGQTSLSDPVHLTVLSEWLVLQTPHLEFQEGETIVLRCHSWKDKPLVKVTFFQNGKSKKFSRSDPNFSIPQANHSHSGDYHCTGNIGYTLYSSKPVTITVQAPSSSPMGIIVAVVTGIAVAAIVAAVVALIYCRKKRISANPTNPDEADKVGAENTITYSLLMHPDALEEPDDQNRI


Key:
human FcgRIIa(R) = target: T1, human FcgRIIa(R); assay: SPR
human FcgRIIb = target: T2, human FcgRIIb; assay: SPR
human FcgRIa = human FcgRIa (human); assay: SPR
Sequence of human FcgRIa (human) (chain, as listed by the source): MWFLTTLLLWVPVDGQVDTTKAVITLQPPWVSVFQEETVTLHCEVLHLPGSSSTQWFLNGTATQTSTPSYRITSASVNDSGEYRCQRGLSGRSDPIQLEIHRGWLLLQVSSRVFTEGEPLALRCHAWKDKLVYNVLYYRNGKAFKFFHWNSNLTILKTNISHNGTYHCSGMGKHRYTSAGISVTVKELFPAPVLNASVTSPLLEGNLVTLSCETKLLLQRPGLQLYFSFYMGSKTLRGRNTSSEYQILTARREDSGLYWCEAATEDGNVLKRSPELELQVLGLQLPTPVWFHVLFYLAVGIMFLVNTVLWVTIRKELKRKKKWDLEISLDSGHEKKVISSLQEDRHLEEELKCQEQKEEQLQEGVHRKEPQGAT

[1] = target: human FcRn (with beta2-microglobulin) (human); assay: SPR, pH 7.0

Binder	Kd [1]	also measured
IL6R-PD081 (antibody) chain 1: QVQLQESGPGLVKPSETLSLTCAVSGHSISHDHAWSWVRQPPGEGLEWIGFISYSGITNYNPSLQGRVTISRDNSKNTLYLQMNSLRAEDTAVYYCARSLARTTAMDYWGEGTLVTVSSASTKGPSVFPLAPSSKSTSGGTAALGCLVKDYFPEPVTVSWNSGALTSGVHTFPAVLQSSGLYSLSSVVTVPSSSLGTQTYICNVNHKPSNTKVDKKVEPKSCDKTHTCPPCPAPELLGEDSVFLFPPKPKDTLYISRTPEVTCVVVDVSHEDPEVKFNWYVDGVEVHNAKTKPREEQYNSTYRVVSVLTVLHQDWLNGKEYKCKVSNKALPAPIEKTISKAKGQPREPQVYTLPPSRDELTKNQVSLTCLVKGFYPSDIAVEWESNGQPENNYKTTPPVLDSDGSFFLYSKLTVDKSRWQQGNVFSCSVMHEALHYHYTQKSLSLSP chain 2: DIQMTQSPSSLSASVGDRVTITCRASQDISSYLNWYQQKPGKAPKLLIYYTSRLHSGVPSRFSGSGSGTDFTFTISSLQPEDIATYYCQQGNTLPYTFGQGTKVEIK		Kd (human FcgRIIa(R)): 38000 nM; Kd (human FcgRIIb): 3600 nM; Kd (human FcgRIa): 340 nM
F1316 (antibody) chain 1: QVQLQESGPGLVKPSETLSLTCAVSGHSISHDHAWSWVRQPPGEGLEWIGFISYSGITNYNPSLQGRVTISRDNSKNTLYLQMNSLRAEDTAVYYCARSLARTTAMDYWGEGTLVTVSSASTKGPSVFPLAPSSKSTSGGTAALGCLVKDYFPEPVTVSWNSGALTSGVHTFPAVLQSSGLYSLSSVVTVPSSSLGTQTYICNVNHKPSNTKVDKKVEPKSCDKTHTCPPCPAPELLGRPKVFLFPPKPKDTLYISRTPEVTCVVVDVSHEDPEVKFNWYVDGVEVHNAKTKPREEQYNSTYRVVSVLTVLHQDWLNGKEYKCKVSNKALPAPIEKTISKAKGQPREPQVYTLPPSRDELTKNQVSLTCLVKGFYPSDIAVEWESNGQPENNYKTTPPVLDSDGSFFLYSKLTVDKSRWQQGNVFSCSVMHEALHYHVTQKSLSLSP chain 2: not shown	149 nM	
F1356 (antibody) chain 1: QVQLQESGPGLVKPSETLSLTCAVSGHSISHDHAWSWVRQPPGEGLEWIGFISYSGITNYNPSLQGRVTISRDNSKNTLYLQMNSLRAEDTAVYYCARSLARTTAMDYWGEGTLVTVSSASTKGPSVFPLAPSSKSTSGGTAALGCLVKDYFPEPVTVSWNSGALTSGVHTFPAVLQSSGLYSLSSVVTVPSSSLGTQTYICNVNHKPSNTKVDKKVEPKSCDKTHTCPPCPAPELLRGPSVFLFPPKPKDTLYISRTPEVTCVVVDVSHEDPEVKFNWYVDGVEVHNAKTKPREEQYNSTYRVVSVLTVLHQDWLNGKEYKCKVSNKARPAPIEKTISKAKGQPREPQVYTLPPSRDELTKNQVSLTCLVKGFYPSDIAVEWESNGQPENNYKTTPPVLDSDGSFFLYSKLTVDKSRWQQGNVFSCSVMHEALHYHVTQKSLSLSP chain 2: not shown	158 nM	
F1315 (antibody) chain 1: QVQLQESGPGLVKPSETLSLTCAVSGHSISHDHAWSWVRQPPGEGLEWIGFISYSGITNYNPSLQGRVTISRDNSKNTLYLQMNSLRAEDTAVYYCARSLARTTAMDYWGEGTLVTVSSASTKGPSVFPLAPSSKSTSGGTAALGCLVKDYFPEPVTVSWNSGALTSGVHTFPAVLQSSGLYSLSSVVTVPSSSLGTQTYICNVNHKPSNTKVDKKVEPKSCDKTHTCPPCPAPELLGKPKVFLFPPKPKDTLYISRTPEVTCVVVDVSHEDPEVKFNWYVDGVEVHNAKTKPREEQYNSTYRVVSVLTVLHQDWLNGKEYKCKVSNKALPAPIEKTISKAKGQPREPQVYTLPPSRDELTKNQVSLTCLVKGFYPSDIAVEWESNGQPENNYKTTPPVLDSDGSFFLYSKLTVDKSRWQQGNVFSCSVMHEALHYHVTQKSLSLSP chain 2: not shown	152 nM	
IL6R-PD043 (antibody) chain 1: QVQLQESGPGLVKPSETLSLTCAVSGHSISHDHAWSWVRQPPGEGLEWIGFISYSGITNYNPSLQGRVTISRDNSKNTLYLQMNSLRAEDTAVYYCARSLARTTAMDYWGEGTLVTVSSASTKGPSVFPLAPSSKSTSGGTAALGCLVKDYFPEPVTVSWNSGALTSGVHTFPAVLQSSGLYSLSSVVTVPSSSLGTQTYICNVNHKPSNTKVDKKVEPKSCDKTHTCPPCPAPEYLGGDSVFLFPPKPKDTLYISRTPEVTCVVVDVSHEDPEVKFNWYVDGVEVHNAKTKPREEQYNSTYRVVSVLTVLHQDWLNGKEYKCKVSNKALPAPIEKTISKAKGQPREPQVYTLPPSRDELTKNQVSLTCLVKGFYPSDIAVEWESNGQPENNYKTTPPVLDSDGSFFLYSKLTVDKSRWQQGNVFSCSVMHEALHYHYTQKSLSLSP chain 2: DIQMTQSPSSLSASVGDRVTITCRASQDISSYLNWYQQKPGKAPKLLIYYTSRLHSGVPSRFSGSGSGTDFTFTISSLQPEDIATYYCQQGNTLPYTFGQGTKVEIK		Kd (human FcgRIIa(R)): 26000 nM; Kd (human FcgRIIb): 1600 nM; Kd (human FcgRIa): 75 nM
F1325 (antibody) chain 1: QVQLQESGPGLVKPSETLSLTCAVSGHSISHDHAWSWVRQPPGEGLEWIGFISYSGITNYNPSLQGRVTISRDNSKNTLYLQMNSLRAEDTAVYYCARSLARTTAMDYWGEGTLVTVSSASTKGPSVFPLAPSSKSTSGGTAALGCLVKDYFPEPVTVSWNSGALTSGVHTFPAVLQSSGLYSLSSVVTVPSSSLGTQTYICNVNHKPSNTKVDKKVEPKSCDKTHTCPPCPAPEAAGGPSVFLFPPKPKDTLYISRTPEVTCVVVDVSHEDPEVKFNWYVDGVEVHNAKTKPREEQYASTYRVVSVLTVLHQDWLNGKEYKCKVSNKALPAPIEKTISKAKGQPREPQVYTLPPSRDELTKNQVSLTCLVKGFYPSDIAVEWESNGQPENNYKTTPPVLDSDGSFFLYSKLTVDKSRWQQGNVFSCSVMHEALHYHVTQKSLSLSP chain 2: not shown	213 nM	

Further binders by falling Kd [1], results first:

Kd [1]	Binder	also measured
143 nM	F1318 (antibody) chain 1: QVQLQESGPGLVKPSETLSLTCAVSGHSISHDHAWSWVRQPPGEGLEWIGFISYSGITNYNPSLQGRVTISRDNSKNTLYLQMNSLRAEDTAVYYCARSLARTTAMDYWGEGTLVTVSSASTKGPSVFPLAPSSKSTSGGTAALGCLVKDYFPEPVTVSWNSGALTSGVHTFPAVLQSSGLYSLSSVVTVPSSSLGTQTYICNVNHKPSNTKVDKKVEPKSCDKTHTCPPCPAPELLGGPKVFLFPPKPKDTLYISRTPEVTCVVVDVSHEDPEVKFNWYVDGVEVHNAKTKPREEQYNSTYRVVSVLTVLHQDWLNGKEYKCKVSNKALRAPIEKTISKAKGQPREPQVYTLPPSRDELTKNQVSLTCLVKGFYPSDIAVEWESNGQPENNYKTTPPVLDSDGSFFLYSKLTVDKSRWQQGNVFSCSVMHEALHYHVTQKSLSLSP chain 2: not shown	
138 nM	F1317 (antibody) chain 1: QVQLQESGPGLVKPSETLSLTCAVSGHSISHDHAWSWVRQPPGEGLEWIGFISYSGITNYNPSLQGRVTISRDNSKNTLYLQMNSLRAEDTAVYYCARSLARTTAMDYWGEGTLVTVSSASTKGPSVFPLAPSSKSTSGGTAALGCLVKDYFPEPVTVSWNSGALTSGVHTFPAVLQSSGLYSLSSVVTVPSSSLGTQTYICNVNHKPSNTKVDKKVEPKSCDKTHTCPPCPAPELLGGPKVFLFPPKPKDTLYISRTPEVTCVVVDVSHEDPEVKFNWYVDGVEVHNAKTKPREEQYNSTYRVVSVLTVLHQDWLNGKEYKCKVSNKALKAPIEKTISKAKGQPREPQVYTLPPSRDELTKNQVSLTCLVKGFYPSDIAVEWESNGQPENNYKTTPPVLDSDGSFFLYSKLTVDKSRWQQGNVFSCSVMHEALHYHVTQKSLSLSP chain 2: not shown	
132 nM	F1324 (antibody) chain 1: QVQLQESGPGLVKPSETLSLTCAVSGHSISHDHAWSWVRQPPGEGLEWIGFISYSGITNYNPSLQGRVTISRDNSKNTLYLQMNSLRAEDTAVYYCARSLARTTAMDYWGEGTLVTVSSASTKGPSVFPLAPSSKSTSGGTAALGCLVKDYFPEPVTVSWNSGALTSGVHTFPAVLQSSGLYSLSSVVTVPSSSLGTQTYICNVNHKPSNTKVDKKVEPKSCDKTHTCPPCPAPEAAGGPSVFLFPPKPKDTLYISRTPEVTCVVVDVSHEDPEVKFNWYVDGVEVHNAKTKPREEQYNSTYRVVSVLTVLHQDWLNGKEYKCKVSNKALPAPIEKTISKAKGQPREPQVYTLPPSRDELTKNQVSLTCLVKGFYPSDIAVEWESNGQPENNYKTTPPVLDSDGSFFLYSKLTVDKSRWQQGNVFSCSVMHEALHYHVTQKSLSLSP chain 2: not shown	
123 nM	F1333 (antibody) chain 1: QVQLQESGPGLVKPSETLSLTCAVSGHSISHDHAWSWVRQPPGEGLEWIGFISYSGITNYNPSLQGRVTISRDNSKNTLYLQMNSLRAEDTAVYYCARSLARTTAMDYWGEGTLVTVSSASTKGPSVFPLAPSSKSTSGGTAALGCLVKDYFPEPVTVSWNSGALTSGVHTFPAVLQSSGLYSLSSVVTVPSSSLGTQTYICNVNHKPSNTKVDKKVEPKSCDKTHTCPPCPAPELRRGPKVFLFPPKPKDTLYISRTPEVTCVVVDVSHEDPEVKFNWYVDGVEVHNAKTKPREEQYNSTYRVVSVLTVLHQDWLNGKEYKCKVSNKALPAPIEKTISKAKGQPREPQVYTLPPSRDELTKNQVSLTCLVKGFYPSDIAVEWESNGQPENNYKTTPPVLDSDGSFFLYSKLTVDKSRWQQGNVFSCSVMHEALHYHVTQKSLSLSP chain 2: not shown	
107 nM	F890 (antibody) chain 1: QVQLQESGPGLVKPSETLSLTCAVSGHSISHDHAWSWVRQPPGEGLEWIGFISYSGITNYNPSLQGRVTISRDNSKNTLYLQMNSLRAEDTAVYYCARSLARTTAMDYWGEGTLVTVSSASTKGPSVFPLAPSSKSTSGGTAALGCLVKDYFPEPVTVSWNSGALTSGVHTFPAVLQSSGLYSLSSVVTVPSSSLGTQTYICNVNHKPSNTKVDKKVEPKSCDKTHTCPPCPAPELLGGPSVFLFPPKPKDTLYISRTPEVTCVVVDVSHEDPEVKFNWYVDGVEVHNAKTKPREEQYNSTYRVVSVLTVLHQDWLNGKEYKCKVSNKALPAPIEKTISKAKGQPREPQVYTLPPSRDELTKNQVSLTCLVKGFYPSDIAVEWESNGQPENNYKTTPPVLDSDGSFFLYSKLTVDKSRWQQGNVFSCSVMHEALHYHVTQKSLSLSP chain 2: not shown	
